{"source": "a protein production outcome set (Wang et al. 2014)", "assay": "label from the status in PepcDB records", "data": [{"sequence": "MRTRWLPRGRGLGSASARLRSAVAGRGTVRAELGYGAFLSYSGERDRRWLPQLRHAIEKQSRPWYKPPHIRVFLDKTGVSIGPELWGKIEAGLARSDWLVVLASPEARASVWVDREIAWWLEHKSVHTILLVVTAGQLVWDEERGDWDPERSTALPARLAGKFERQPVWKSVDPRPDGDAVFSTDDAGFSPDVDGVAFGVASVVRGLSEDELRSEGLRDTRRNLRTARIVATALGCLLLVASTLSVVAVLSRAEATRQRDQAVVQQLITQSSLLAERDPFAARLKALAAWRIDPSPETRFAVLDAAVNPASGVLSHSVPVDSVAFSPDGRTVASGGSDGVVRIWRTGTQRTAGRPLIGHHQGITSIAFAPDGRTLASSGFDGTVRLWDLADRTQIGAPFNAGAGSVRSVAFGRDGRTLVTVDEADSGTVRVWDVATHRQTGHPLDGPGPVLGTNADGSRVGSSTSQGGIRLWDTASGAPAGGALKGGDGVVTALSFSSDGKTFATADLVGNLRLWDIEARAPVGEPIASPATSTGVRAITFSPDGAMLAAAYEGGGVRLWDLRRRAQVGGPLLAHTSTVESVAFSPDGSVLASASADTTVRLWDVRTLRQAGAPIDTGGKGAAALSPDGRSLAVVDSEQAVRLWDVVARRRVGEPLVRGVYSFSPSLAFRADGAVLAIGADGLRLREVATRRPVGEPLLGTGDVGALSFGPDGRTLVSGGPDSVHVWDLTARPPTGTALGPRSVGVALSPDGRSLATTTQDDTVVFWDMATRRRIGETPGDHTAQITAVAWSPDGTTLATAGRDDTVRLWDAATRERIGAPLRGHHGGLTSVVFSPDGATLATGGNDHTVRLWDVATERPIGAPLEGHGAGVTGVAFTPGGDTLVSWAQDGTARLWNVAATVDPVRSLCAWADGAFTTDRWHEDVPAGPASRTLCRK", "values": [{"measurement": "protein production", "result": "failed"}]}, {"sequence": "WFMPFDNWLYQLQNADPVEISSSGFEIAVIDYSKDGSESGEYSPEEIKIMVDAGVVPVAYVNIGQAEDYRFYWKESWYTNTPEWLGEEDPAWPGNYFVKYWYNEWKEIVFSYLDRVIDQGFKGIYLDRIDSFEYWAQEGVISRRSAARKMINFVLEIAEYVRERKPDMLIIPQNGENILDFDDGQLASTVSGWAVENLFYLKTIPLEENETKSRLEYLIRLNRKGKFILSVDYVDDGSDSFENISRILDYYEKAKRNGCIPYAARSDLELDEMNVIEGIQPPEALKDYESRTYR", "values": [{"measurement": "protein production", "result": "not failed"}]}, {"sequence": "MGLVIYDTLARRKVPFEPAVPGHVGIYVCGPTVYADPHLGHARGPVVYDVLRRYLLHKGYKVRFVSNITDVGHLTDDADEGEDKIVRRAKLERLEPMEVAEKYTWSYFDAMQALNVLRPSIAPRASGHIPEMLELTERLLARGVAYERKGSVYFRVRSFPEYGKLSGKRLEELRAGARVEVREEKEDPLDFALWKAAEPGHIMRWKSPWGEGYPGWHIECTAMSLKYLGEGFDLHAGGIDLQFPHHECEIAQAEAAGFRFARHWMHHNHVLLEGEKMAKSTGNLVLLHDLLEAHEPMALRFYLLQTHYRSPMDFTWEGLESAKRGYGRLLHAYREVRGRKKTAPPGTTPELERALDALEKAFMEAIEDDLSTPEALAALFAFLPELHKLLPEAKAESLARAEAVFHTLGEGILGLFPERVLEERVSGPLLEGLIALLLELREEARRAKDYEKSDLIRERLRALGVIVEDTKEGPRWRLER", "values": [{"measurement": "protein production", "result": "not failed"}]}, {"sequence": "MGYLKNHWWKRWIRRRGCKLAGGPASVGKRTTLVLEERVELGHLRIVPPRLEIGAYSYVRSGTDLSLVASIGRFCSIGSDCFIGQEKHTHPSDWVSSHPFQHTGTALRYEPALSYAEIGHDVWIGHSAMVMEGVKVGTGAIIATRAVVTRDVPPYAIVAGTPAQVIRYRHPPEIIEGLLASRWWELDSAFLTGLPLDR", "values": [{"measurement": "protein production", "result": "failed"}]}, {"sequence": "MSPEAKEAQDSRRNEMPEKKRAVLRKAIKLEWATIAWVLFSIVLVGVVAGQSQAMRSAWIEDMLSLVPPIAFLLASRISKAVATRKHPYGKHRSIAIGHQAAALALLIMGSLLIYEAVSALIKGERPPIGLAILFGHDVWSGWLMIGVMISVSIPMVIVGRVKINLAKDLHDKLLYADADMAKADWGTAVASTVGVLGIGLGFWWADAVAALVISASILRDGVINMKAAISDLGDGRAMTYDNSAPHPLNDDVEKAALEMHWVKHARARIRDQGRCFHTELFVEPVEGYTPAPEEITSLVKRIQNLDWKLQDVVASVVEKIDRFQAPS", "values": [{"measurement": "protein production", "result": "failed"}]}, {"sequence": "MFSKIFKSFFYSWLATLFSTSLILCICFGNSHPVAIVNAQTPDAYKLVNQGIESYKKGDFHAAIKPWEAALDSYQKNNDFRNIAIINENLARTYQQLGNKSLTLSYWEKVKDYYHSQKNLQKVGRILTEIAQIYSNSGQTKKSYQSFMWCKYINLSNRECITNCPGTTR", "values": [{"measurement": "protein production", "result": "failed"}]}, {"sequence": "MDKKYDITAVLNEDSSMTAISDQFQITLDARPKHTAKGFGPLAALLSGLAACELATANLMAPAKMITINKLLMNVTGSRSTNPTDGYFGLREINLHWEIHSPNSETEIKEFIDFVSKRCPAHNTLQGVSQLKINVNVTLVH", "values": [{"measurement": "protein production", "result": "not failed"}]}, {"sequence": "MTAEETVNVKEVEIIKLILDFLNSKKLHISMLALEKESGVINGLFSDDMLFLRQLILDGQWDEVLQFIQPLECMEKFDKKRFRYIILKQKFLEALCVNNAMSAEDEPQHLEFTMQEAVQCLHALEEYCPSKDDYSKLCLLLTLPRLTNHAEFKDWNPSTARVHCFEEVCVMVAEFIPADRKLSEAGFKASNNRLFQLVMKGLLYECCVEFCQSKATGEEITESEVLLGIDLLCGNGCDDLDLSLLSWLQNLPSSVFSCAFEQKMLNIHVDKLLKPTKAAYADLLTPLISKLSPYPSSPMRRPQSADAYMTRSLNPALDGLTCGLTSHDKRISDLGNKTSPMSHSFANFHYPGVQNLSRSLLLENTECHSIYEESPERSDTPVETQQPVSIEPMCQGSGLEKEPANGAQNPVPAKQQEKNELRDSTEQFQEYYRQRLRYQQHLEQKEQQRQIYQQMLLEGGVNQEDGPDQQQNLTEQFLNRSIQKLGELNIGMDSLGNEVPVLNQQCLGSKNSGSNNSSVTSFSSPPQDSSQRLTHDTSNIHTSTPRNPGSTNHIPFLEESPCGSQNSSEHSVVKPSPGDSSGSLSRSKGEEDDKSKKQFVCINTLEDTQAVRAVAFHPSGSLYAVGSNSKTLRVCAYPEKLDTSAHDGPKQPVVRFKRNKHHKGSIYCVAWSPCGQLLATGSNDKYVKVLPFNAETCNATGPDLEFSMHDGTIRDLAFMEGPESGGAILISAGAGDCNIYTTDCQRGQGLHALSGHTGHILALYTWSGWMIASGSQDKTVRFWDLRVPSCVRVVGTTFHGTGSAVASVAVDPSGRLLATGQEDSSCMLYDIRGGRMVQSYHPHSSDVRSVRFSPGAHYLLTGSYDMKIKVTDLQGDLTKQLPLMVVGEHKDKVIQCRWHTQDLSFLSSSADRTVTLWTYSG", "values": [{"measurement": "protein production", "result": "failed"}]}, {"sequence": "MQGISASPERMNAQQRAAHVRQVVLARGDELRRRFPLLRHQDALGAGILAFALSGMLGSALLYVTGHLAWWACLLLNAFFASLTHELEHDLIHSMYFRKQRLPHNLMLGLVWLARPSTINPWVRRHLHLNHHKVSGSESDIEERAITNGEPWGIARLLMVGDNMMAAFIRLLRAPGARRKLGILVRTLAVYAPLALLHWGAWYVFLGFHGANGVAALLGSPIQWSQDTASLMHYVDIAVVVIIGPNVLRTFCLHFVSSNMHYYGDIEPGNVIQQTQVLNPWWMWPLQAFCCNFGSTHGIHHFVVREPFYIRQMTASVAHKVMAEMGVRFNDFGTFARANRFTRQEREAMQPAHNARA", "values": [{"measurement": "protein production", "result": "failed"}]}, {"sequence": "MVFFHKKIILNFIYSLMVAFLSHGVLLKADGMAKKQTLLVGERLVWDKLTLLGFLEKNHIPQKLYYNLSSQDKELSAEIQSNVTYYTLRDANNTLIQALIPISQDLQIHIYKKGEDYFLDFIPIIFTRKEKTLLLSLQTSPYQDIIKATNDPLLANQLMNAYKKSVPFKRLVKNDKIAIVYTRDYRVGQAFGQPTIKMAMVSSRSNQYYLFSHSNGHYYDSKAQEVAGFLLETPVKYTRISSPFSYGRFHPVLKVRRPHYGVDYAAKHGSLIHSASDGRVGFMGVKAGYGKVVEIHLNELRLVYAHMSAFANGLKKGSFVKKGQIIGRVGSTGLSTGPHLHFGVYKNSRPINPLGYIRTAKSKLHGKQREVFLEKAQRSKQKLEELLKTHSFEKNSFYLLEGF", "values": [{"measurement": "protein production", "result": "failed"}]}, {"sequence": "MENLASPPDISFVIAAYNAADTIEAAVQSALDQRGVTLEVIVVDDRSADDTITFVEAIAAIDPRVRLLALEENRGPGGARNAGIEAATGRWIAVLDSDDVIRPERSACMMCRAEAANAAVAVDNLDVVYTDGRPMETMFPEEFLEERAVLTLEDFISSNILFRSTFNFGYMKPMFRRDFLNNEGLRFREDIRIGEDYILLASALAAGGLCVIEPKPGYIYNIREGSISRVLELHHVEAMMRADQEFLSHYTLLPAAMDAQQARARSLQLAHNFLTLVENIKRRSVLGALKTTIRDPAVLGHLRMPIAVRLRRLRDAMFAPAAKIQGLEHHHHHH", "values": [{"measurement": "protein production", "result": "not failed"}]}, {"sequence": "MNCIPQYYKNRVCLNVLAGSIKNAKEVYDACDGHVLIGVLSKNYSTVEAAIEDMKKYSKEIDNAISVGLGAGDPNQSNMVSQISKELQPQHINQVFTGVATSRALLGQNYSIINGLVSPTGKPGFVKISTGPLSSKEKDGIVPIETAIAMMKDMGGSSIKFFPMGGLKTKDEYIEVAKACAKHNFYLEPTGGIDLDNFKEIVQIALDAGVEKVIPHVYTSIIDKETGETKVEDIGVLYKIMKELLG", "values": [{"measurement": "protein production", "result": "not failed"}]}, {"sequence": "MKKTLVIVVHPDLTKSVINKAWAKAIEGAATIHHLYEQYPNGQIDLAHEQALLEAHDRIVFQFPLYWYAAPYLLKKWMDEVFTEGWAYGAGGDKMEGKEICAAVSCGSPKSAFAEGAQQCHTLRSYLNVFDGIAAFLRARFTGYHACYDSYNPRLPEMLPANCEAYLRFIKGE", "values": [{"measurement": "protein production", "result": "failed"}]}, {"sequence": "MAATGVDKDRPRAMTSTTYLGLLLVGIQVLGFVAAIHAVLTVRTAQGAIAWATSLVFMPYLTLLPYLVFGRSRFDAYIEARRQANREMHLAAAELDWRPWVEEALAARQVSGYKGLKALVRMTRTPTLANNRVRLLVNGEASFEAMFKAISAARQVILVQFFIVRDDALGQRLQQLLLERAANGVEVFFLYDAIGSHALPHRYVERLRQGGVQMHGFSTGSGMLNRFQVNFRNHRKVVVVDGECGFVGGHNVGVEYLGEKPPLAPWRDTHMELRGPAVACLQESFAEDWYWATHSLPPLILPPQYDSEGALCQVVASGPADAQETCSLFFVEMINAAHERVWITSPYFVPDEAVMAALRLAVLRGVDVRLLIPSRPDHRTVYAASSLYALEAIRAGVKVFRYQPGFLHQKVVLVDRDTAAVGSANLDNRSFRLNFEVMVVTVDEGFAGEVEAMLEADFAESLEFTPEDRRSVRRLQQLGMRVARLVSPIL", "values": [{"measurement": "protein production", "result": "failed"}]}, {"sequence": "MYVTIVYASVKTDKTEAFKEATRMNHEQSIREPGNMRFDILQSADDPTRFVLYEAYKTRKDAAAHKETAHYLTWRDTVADWMAEPRKGVIYGGLYPTGDD", "values": [{"measurement": "protein production", "result": "not failed"}]}, {"sequence": "HVQLSLPVLQVRDVLVRGFGDSVEEALSEAREHLKNGTCGLVELEKGVLPQLEQPYVFIKRSDALSTNHGHKVVELVAEMDGIQYGRSGITLGVLVPHVGETPIAYRNVLLRKNG", "values": [{"measurement": "protein production", "result": "not failed"}]}, {"sequence": "EEPTIGDIYNGKVTSIMQFGCFVQLEGLRKRWEGLVHISELRREGRVANVADVVSKGQRVKVKVLSFTGTKTSLSMKDVDQETGEDLNPNRRRNLV", "values": [{"measurement": "protein production", "result": "not failed"}]}, {"sequence": "MGTLWWNGTFFTMVHEGDQVEAVFTEDGKIVAIGTAEELRQRYSTRINQEMNCDGAYVYPLEHHHHHH", "values": [{"measurement": "protein production", "result": "not failed"}]}, {"sequence": "MSARMFVLCCIWFIVAFLWITITSALDKEWMIDGRGINNVCDVLMYLEEDDTRDVGVIMTLPLFFPFLWFALWRKKRGWFMYATALAIFGYWLWQFFLRYQFCL", "values": [{"measurement": "protein production", "result": "failed"}]}, {"sequence": "MKWNLDPSHTSIDFKVRHMGIASVRGSLKVLSGSVETDEAGRPIQVEAVIDAASIATGEPQRDGHLRSADFLHAEQYPEIRFVSTQIEPLGGNRYRIQGNLTIRDITKPVTLEAEVSAPIKDPWGMQRVAASASGQINRKDWNLTWNQVLELGALLVGEEVKFNLEVEAVAPAPVAAQ", "values": [{"measurement": "protein production", "result": "not failed"}]}, {"sequence": "MAISKALIASLLISLLVLQLVQADVENSQKKNGYAKKIGFRGGRGCVTERAGLAATGATVCLRVRTETTTSASATLASPPTVDAASAHKKKQSS", "values": [{"measurement": "protein production", "result": "failed"}]}]}
